Test results taken from patent publication US7981423B2, “Rage fusion proteins” (Transtech Pharma, Inc., priority 2004, dated 2011).

Tests used:
amphoterin (Ampho) = target: T1, amphoterin (Ampho) (Homo sapiens, UniProt P09429); experiment: In vitro ligand binding ELISA, immobilized amphoterin; settings: various dilutions of fusion protein; FIG. 7
T1 sequence (P09429 1-215): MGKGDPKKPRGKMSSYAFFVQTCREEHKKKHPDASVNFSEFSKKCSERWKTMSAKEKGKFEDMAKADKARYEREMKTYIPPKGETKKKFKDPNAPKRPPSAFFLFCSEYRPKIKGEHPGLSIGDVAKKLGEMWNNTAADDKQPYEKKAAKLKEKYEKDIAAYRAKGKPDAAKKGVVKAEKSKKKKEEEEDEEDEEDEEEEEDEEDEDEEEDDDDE
Protocol: For example, the RAGE fusion protein may be used in a binding assay to identify potential RAGE ligands. In one example embodiment of such a binding assay, a known RAGE ligand may coated onto a solid substrate (e.g., Maxisorb plates) at a concentration of about 5 micrograms per well, where each well contains a total volume of about 100 microliters (μL). The plates may be incubated at 4° C. overnight to allow the ligand to absorb. Alternatively, shorter incubation periods at higher temperature (e.g., room temperature) may be used. […] The fusion protein bound to the immobilized ligand may be detected in a variety of ways. […] The bound complex may be detected by adding the alkaline phosphatase substrate, para-nitrophenylphosphate (PNPP), and measuring conversion of PNPP to para-nitrophenol (PNP) as an increase in absorbance at 405 nm. […] Binding was detected by the addition of an immunodetection complex containing a monoclonal mouse anti-human IgG1 diluted 1:11,000 to a final assay concentration (FAC) of 21 ng/100 μL, a biotinylated goat anti-mouse IgG diluted 1:500, to a FAC of […], and an avidin-linked alkaline phosphatase. […] Binding of the complex to the immobilized fusion protein was quantified by measuring conversion of PNPP to para-nitrophenol (PNP) which was-measured spectrophotornetrically at 405 nm. […]

[1] = tested on: RAGE (S100b-stimulated THP-1 cells); experiment: S100b/RAGE-induced production of TNF-α in THP-1 cells; assay type: cell-based; settings: 10 μg protein, FIG. 10
Protocol: THP-1 myeloid cells may be cultured in RPMI-1640 media supplemented with 10% FBS and induced to secrete TNF-α via stimulation of RAGE with S100b. When such stimulation occurs in the presence of a RAGE fusion protein, induction of TNF-α, by S100b binding to RAGE may be inhibited.
Previous work has shown that the myeloid THP-1 cells may secrete TNF-α in response to RAGE ligands. In this assay, THP-1 cells were cultured in RPMI-1640 media supplemented with 10% FBS using a protocol provided by ATCC. […] The amount of TNF-α secreted by the THP-1 cells was measured 24 hours after the addition of the proteins to the cell culture using a commercially available ELISA kit for TNF-α (R&D Systems, Minneapolis, Minn.).

Zucker diabetic rats = experiment: Diabetic rat model of restenosis (balloon injury of left common carotid artery); assay type: in vivo
Protocol: In these experiments, balloon injury of left common carotid artery was performed in Zucker diabetic and nondiabetic rats using standard procedure. […] A maintenance dose was delivered every other day until day 7 after injury (i.e., at day 1, 3, 5 and 7 after injury). The maintenance dose was high=1 mg/animal for one group, or low=0.3 mg/animal for the second group. To measure vascular smooth muscle cell (VSMC) proliferation, animals were sacrificed at 4 days and 21 days after injury.
For the measurement of cell proliferation, 4 day animals received intraperitoneal injection of bromodeoxyuridine (BrDdU) 50 mg/kg at 18, 12, and 2 hours before euthanasia. After sacrifice, the entire left and right carotid arteries were harvested. Specimens were stored in Histochoice for at least 24 hours before embedding. Assessment of VSMC proliferation was performed using mouse anti-BrdU monoclonal antibody. A fluorescence labeled goat anti-mouse secondary antibody was applied. The number of BrdU-positive nuclei per section were counted by two observers blinded to the treatment regimens.
The remaining rats were sacrificed at 21 days for morphometric analysis. Morphometric analyses were performed by an observer blinded to the study groups, using computerized digital microscopic planimetry software Image-Pro Plus on serial sections, ([…]) carotid arteries stained by Van Gieson staining. All data were expressed as mean±SD. Statistical analysis was performed with use of SPSS software. Continuous variables were compared using unpaired t tests. A values of P≦0.05 was considered to be statistically significant.

[2] = High dose 1.0 mg/animal qod × 4, loading dose 3 mg/animal, IP, 21 days, mean±SD
[3] = Low dose 0.3 mg/animal qod × 4, loading dose 3 mg/animal, IP, 21 days, mean±SD

B1: TTP-4000: four domain RAGE fusion protein (SEQ ID NO: 32): human RAGE amino acids 1-251 linked to CH2 and CH3 domains of human IgG (protein)
chain: MAAGTAVGAWALVLSLWGAVVGAQNITARIGEPLVLKCKGAPKKPPQRLEWKLNTGRTEAWKVLSPQGGGPWDSVARVLPNGSLFLPAVGIQDEGIFRCQAMNRNGKETKSNYRVRVYQIPGKPEIVDSASELTAGVPNKVGTCVSEGSYPAGTLSWHLDGKPLVPNEKGVSVKEQTRRHPETGLFTLQSELMVTPARGGDPRPTFSCSFSPGLPRHRALRTAPIQPRVWEPVPLEEVQLVVEPEGGAVAPPSVFLFPPKPKDTLMISRTPEVTCVVVDVSHEDPEVKFNWYVDGVEVHNAKTKPREEQYNSTYRVVSVLTVLHQDWLNGKEYKCKVSNKALPAPIEKTISKAKGQPREPQVYTLPPSRDELTKNQVSLTCLVKGFYPSDIAVEWESNGQPENNYKTTPPVLDSDGSFFLYSKLTVDKSRWQQGNVFSCSVMHEALHNHYTQKSLSLSPGK
binding to immobilized amphoterin (absorbance at 405 nm) (amphoterin (Ampho)): specifically interact | reduction of S100b induction of TNF-α ([1]; S100b 0.1 mg/ml FAC, 24 hours): ~70% | effect on S100b induction of TNF-α (in words) ([1]; S100b 0.1 mg/ml): at least as effective in blocking S100b induction of TNF-α as is sRAGE | vascular smooth muscle cell proliferation (BrdU proliferating cells, in words) (Zucker diabetic rats; 4 days after injury, dose-responsive, FIG. 13B): significantly reduced | Luminal area (Zucker diabetic rats; [2]): 0.16 ± 0.02 mm^2 | Medial area (Zucker diabetic rats; [2]): 0.11 ± 0.01 mm^2 | I/M ratio (Zucker diabetic rats; [3]): 1.61 ± 0.26 | Luminal area (Zucker diabetic rats; [3]): 0.18 ± 0.04 mm^2 | Medial area (Zucker diabetic rats; [3]): 0.11 ± 0.02 mm^2 | intima/media ratio (in words) (Zucker diabetic rats; dose-responsive, FIG. 13A): significantly reduced
